In US20230099200A1, “RADIOLABELED PEPTIDES FOR NON-INVASIVE DIAGNOSIS AND TREATMENT OF CXCR4 EXPRESSING TUMORS” (ISTITUTO NAZIONALE TUMORI IRCCS - FONDAZIONE G. PASCALE, priority 2019, published 2023):
Read-outs that look alike come from different tables or passages of the source. Values belong to the molecule of their own block, whether it stands above or below them. Where a SMILES comes first, the peptide text is derived from it. Bridges are numbered along the chain shown (N, C = ends). [ ]: non-standard residue; d: D form. The star is where a group is joined. AMBHA = 6-(4-(aminomethyl)benzamido)hexanoic acid linker, NCc1ccc(C(=O)NCCCCCC(=O)*)cc1; DOTA = O=C(O)CN1CCN(CC(=O)O)CCN(CC(=O)*)CCN(CC(=O)O)CC1; NOTA = O=C(O)CN1CCN(CC(=O)O)CCN(CC(=O)*)CC1; 2Nal = N[C@@H](Cc1ccc2ccccc2c1)C(=O)O; Fmoc = O=C(OCC1c2ccccc2-c2ccccc21)*; Pen = CC(C)(S)[C@H](N)C(=O)O; 4Amb = NCc1ccc(C(=O)O)cc1; Ahx = NCCCCCC(=O)O

Assays:
CXCR4 [1] = target: T1, CXCR4 (Homo sapiens, UniProt P61073); assay: competitive binding with [^125I]CXCL12 as radioligand on CXCR4-expressing CCRF-CEM cells; parameters: using CXCR4-expressing CCRF-CEM cells, human T lymphoblastic leukemia cells CXCR4 expressing; endogenous in cells; host or cells: CCRF-CEM (human T-cell leukemia), whole cells; conditions: [^125I]CXCL12 radioligand, means ±SD, read-out: hCXCR4 binding affinity IC50
T1 sequence (P61073 whole entry): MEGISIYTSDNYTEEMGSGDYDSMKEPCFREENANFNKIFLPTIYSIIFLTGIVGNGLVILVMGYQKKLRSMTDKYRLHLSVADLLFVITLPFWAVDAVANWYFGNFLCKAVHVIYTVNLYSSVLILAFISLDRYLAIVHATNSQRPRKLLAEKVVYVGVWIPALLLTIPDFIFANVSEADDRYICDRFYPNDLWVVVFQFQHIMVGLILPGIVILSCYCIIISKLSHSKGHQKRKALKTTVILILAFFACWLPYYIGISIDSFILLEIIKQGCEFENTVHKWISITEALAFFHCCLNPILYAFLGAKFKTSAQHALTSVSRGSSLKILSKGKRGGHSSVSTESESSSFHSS
Protocol: Specifically, according to the present invention, DOTA and NOTA-AMBHA-R54 were synthesized by combining solid and solution-phase peptide synthesis. Binding affinities (IC50) were determined using CXCR4-expressing CCRF-CEM cells, human T lymphoblastic leukemia cells CXCR4 expressing, with [^125I]CXCL12 as radioligand. Chinese hamster ovary (CHO) and CHO cells transduced with human CXCR4 (CHO-hCXCR4) grown in complete medium supplemented with 1 mg/mL G418 (a kind gift of Dr. David McDermott (NIAID, NIH, Bethesda, Md.).
Binding affinities to hCXCR4 were assessed with CCRF-CEM cells (1·10^6 cells/sample) in binding buffer (PBS containing 50 mM HEPES, 1 mM CaCl2, 5 mM MgCl2, 0.5% BSA, and 0.3 mM NaN3) and [^125I]CXCL12 (Perkin-Elmer, 2200 Ci/mmol) as radioligand. Cells were incubated with 100.000 cpm of the respective radioligand (approx. 0.1 nM) plus increasing concentrations (10^−11 to 10^−5 M) of the respective peptide of interest (n=3 per concentration, total sample volume 250 μL). After incubation at 4° C. for 60 min (CCRF-CEM cells) at room temperature (RT), samples were centrifuged (5 min, 450 g, Megafuge 1.0, Heraeus Thermo Scientific), the supernatant was carefully removed and pooled with the supernatants of two subsequently performed washing steps. […]

CXCR4 [2] = target: T1, CXCR4; conditions: competitive binding assay using anti-CXCR4 mAb 12G5; read-out: CXCR4 affinity IC50; cited from earlier work
CHO-hCXCR4 xenografts = assay: in vivo; parameters: species or system mice; conditions: mouse; for tumor accumulation upon co-injection of unlabeled competitor (R54): 8 mg/kg
Source text: (§1) Female athymic nude mice (6 weeks old from Envigo Laboratories, Indianapolis, Ind., USA) were subcutaneously (s.c.) injected with 10^7 CHO (right flank) and CHO-hCXCR4 (left flank) or CHO-hCXCR4 cells alone (right flank). Once tumors became palpable (100=^3 [volume=0.5×long diameter×(short diameter)^2]), approximately 15-21 days post injection (p.i.), the animals were used for the experiments. Tumor-bearing CHO/CHO-hCXCR4 mice were i.v. injected with 10-15 MBq of the respective radiotracer in 100 μL of PBS. At 45 min p.i., mice were anaesthetized with Avertin and images were acquired using a Discovery 600 PET/TC scanner (GE healthcare) in 3D mode with measured attenuation correction (1 bed position, 6 min scanning time). Data were decay-corrected to the time of tracer injection. The reconstructed images including PET, CT and fused PET/TC images, were generated on the advantage workstation version (AW4.6 software, GE healthcare). Tissue activity (e.g. tumor, lung, liver, kidney) was quantified considering the volume of a region of interest (ROI) to determine maximum standardized uptake values (SUVmax). Non-specific tracer accumulation was investigated by co-injection of 8 mg/kg unlabeled peptide […]. CHO and CHO-hCXCR4 tumors were microscopically analyzed (H&E) and CXCR4 expression was evaluated through immunohistochemistry (IHC) (mab172, clone 44716, diluition 1:[…]&D system). The percentage of positive cells was evaluated in at least 5 areas (HPF 200× magnification) (Zeiss AxioScope light microscope). Statistical analysis was performed using the MedCalc 9.3.7.0 and Excel software. Unpaired Student t test was used for statistical analysis of ex vivo biodistribution and PET/TC images. The Spearman's correlation was used to measure the degree of association between SUV(max) and % CXCR4 IHC staining.

in vivo = assay: in vivo; parameters: species or system mice; conditions: female, athymic nude, mouse, iv, total radioactivity
Source text: as §1

CHO-hCXCR4 tumor = system: CHO-hCXCR4 tumor; parameters: species or system mice; conditions: mouse, in vivo
Protocol: Female athymic nude mice (6 weeks old from Envigo Laboratories, Indianapolis, Ind., USA) were subcutaneously (s.c.) injected with 10^7 CHO (right flank) and CHO-hCXCR4 (left flank) or CHO-hCXCR4 cells alone (right flank). Once tumors became palpable (100=^3 [volume=0.5×long diameter×(short diameter)^2]), approximately 15-21 days post injection (p.i.), the animals were used for the experiments. 10-15 MBq of the respective ^68Ga-labeled peptide in 100 μL of PBS were injected into the tail vein of nude mice bearing CHO-hCXCR4 tumor (groups of n=3-5). For competition studies, 8 mg/kg of unlabeled […], were co-injected with the radioligands. At 45 min p.i., blood was collected from the retro-orbital plexus (100 μl) and mice were sacrificed and the tissues and organs of interest were dissected, weighed, and counted for radioactivity in a γ-counter. Biodistribution data are given as percent injected dose per gram tissue, % ID/g (means±SD). The biodistribution of [^68Ga]DOTA-AMBHA-R54 and [^68Ga]NOTA-AMBHA-R54 was investigated in CHO-hCXCR4 bearing […] mice (45 min p.i.). […] Data are given in % ID/g and are means±SD.

[3] = target: T2, human CXCR4 (chemokine receptor 4) on CCRF-CEM cells (human, UniProt P61073 1-352); assay: displacement of [125I]CXCL12 from CXCR4-expressing CCRF-CEM cells, gamma counting
T2 construct: whole, on cells; also called hCXCR4
T2 sequence (P61073 whole entry): as above
Protocol: Cells were incubated with 100.000 cpm of the respective radioligand (approx. 0.1 nM) plus increasing concentrations (10⁻¹¹ to 10⁻⁵ M) of the respective peptide of interest (n=3 per concentration, total sample volume 250 μL). After incubation at 4° C. for 60 min (CCRF-CEM cells) at room temperature (RT), samples were centrifuged (5 min, 450 g, Megafuge 1.0, Heraeus Thermo Scientific), the supernatant was carefully removed and pooled with the supernatants of two subsequently performed washing steps. Then, the amount of free (pooled supernatants) and bound radioligand (cell pellet) was quantified using a γ-counter and expressed in percent of total added activity. The half maximal inhibitory concentration (IC₅₀) values were calculated using GraphPad Prism software (GraphPad Software, Inc., California).
To assess the influence of modifications and chelator conjugation on R54, the CXCR4 affinity of Fmoc-AMBHA-R54 (see above the structure), NOTA-AMBHA-R54 and DOTA-AMBHA-R54 peptides as well as unmodified R54 were tested in competitive binding with [¹²⁵I]CXCL12 as radioligand on CXCR4-expressing CCRF-CEM cells. Each experiment was performed in triplicate, and results are means ±SD from a minimum of three separate experiments.

- IC50 (CXCR4 [1]): 20 ± 2 nM
Molecule: CC(=O)N[C@@H](CCCNC(=N)N)C(=O)N[C@@H](C)C(=O)N[C@@H]1CSSC(C)(C)[C@@H](C(=O)O)NC(=O)[C@H](Cc2c[nH]cn2)NC(=O)[C@H](Cc2ccc3ccccc3c2)NC(=O)[C@H](CCCNC(=N)N)NC1=O [Peptide R54, Ac-Arg-Ala-[DCys-Arg-Nal(2′)-His-Pen]COOH] (Ac-RA[dC]R[2Nal]H[Pen]-OH; disulfide 3-7)

Molecule: CC(=O)N[C@@H](CCCNC(=N)N)C(=O)N[C@@H](C)C(=O)N[C@@H]1CSSC(C)(C)[C@@H](C(=O)O)NC(=O)[C@H](Cc2cnc[nH]2)NC(=O)[C@H](Cc2ccc3ccccc3c2)NC(=O)[C@H](CCCNC(=N)N)NC1=O [Peptide R54, Ac-Arg-Ala-[DCys-Arg-Nal(2′)-His-Pen]COOH] (Ac-RA[dC]R[2Nal]H[Pen]-OH; disulfide 3-7)
- IC50 (CXCR4 [2]): 1.5 ± 0.5 nM

Molecule: C[C@H](NC(=O)[C@H](CCCNC(=N)N)NC(=O)CCCCCNC(=O)c1ccc(CNC(=O)CN2CCN(CC(=O)O)CCN(CC(=O)O)CCN(CC(=O)O)CC2)cc1)C(=O)N[C@@H]1CSSC(C)(C)[C@@H](C(=O)O)NC(=O)[C@H](Cc2c[nH]cn2)NC(=O)[C@H](Cc2ccc3ccccc3c2)NC(=O)[C@H](CCCNC(=N)N)NC1=O [[^68Ga]DOTA-AMBHA-R54, metal not drawn] ({DOTA-4Amb-Ahx}-RA[dC]R[2Nal]H[Pen]-OH; disulfide 3-7)
- maximum standardized uptake value (SUVmax) (CHO-hCXCR4 xenografts): 2.02 ± 0.14 g/mL
- tumor accumulation upon co-injection of unlabeled competitor (R54) (CHO-hCXCR4 xenografts): reduced to background levels
- SUV at 0.75 h (in vivo): 2.02 ± 0.14 SUV
- tumor/non-tumor ratios (CHO-hCXCR4 tumor): high tumor/non-tumor ratios

Molecule: C[C@H](NC(=O)[C@H](CCCNC(=N)N)NC(=O)CCCCCNC(=O)c1ccc(CNC(=O)CN2CCN(CC(=O)O)CCN(CC(=O)O)CC2)cc1)C(=O)N[C@@H]1CSSC(C)(C)[C@@H](C(=O)O)NC(=O)[C@H](Cc2c[nH]cn2)NC(=O)[C@H](Cc2ccc3ccccc3c2)NC(=O)[C@H](CCCNC(=N)N)NC1=O [[^68Ga]NOTA-AMBHA-R54, metal not drawn] ({NOTA-4Amb-Ahx}-RA[dC]R[2Nal]H[Pen]-OH; disulfide 3-7)
- maximum standardized uptake value (SUVmax) (CHO-hCXCR4 xenografts): 19.6 ± 2.00 g/mL
- tumor accumulation upon co-injection of unlabeled competitor (R54) (CHO-hCXCR4 xenografts): reduced to background levels
- SUV at 0.75 h (in vivo): 19.6 ± 2 SUV
- excretion route (CHO-hCXCR4 tumor): exclusive renal excretion
- tumor/non-tumor ratios (CHO-hCXCR4 tumor): high tumor/non-tumor ratios

- IC50 [3]: 38.5 nM
Molecule: {Fmoc-AMBHA}-RA[dC]R[2Nal]H[Pen]-OH (disulfide 3-7) [Fmoc-AMBHA-R54]

- IC50 [3]: 107 nM
Molecule: {DOTA-AMBHA}-RA[dC]R[2Nal]H[Pen]-OH (disulfide 3-7, also called DOTA-Ahx-R54; DOTA-R54) [DOTA-AMBHA-R54]

- IC50 [3]: 36 nM
Molecule: {NOTA-AMBHA}-RA[dC]R[2Nal]H[Pen]-OH (disulfide 3-7, also called NOTA-Ahx-R54; NOTA-R54) [NOTA-AMBHA-R54]
